# B1: baker's yeast D-glyceraldehyde-3-phosphate dehydrogenase (enzyme)
# chain: VRVAINGFGRIGRLVMRIALSRPNVEVVALNDPFITNDYAAYMFKYDSTHGRYAGEVSHDDKHIIVDGKKIATYQERDPANLPWGSSNVDIAIDSTGVFKELDTAQKHIDAGAKKVVITAPSSTAPMFVMGVNEEKYTSDLKIVSNASCTTNCLAPLAKVINDAFGIEEGLMTTVHSLTATQKTVDGPSHKDWRGGRTASGNIIPSSTGAAKAVGKVLPELQGKLTGMAFRVPTVDVSVVDLTVKLNKETTYDEIKKVVKAAAEGKLKGVLGYTEDAVVSSDFLGDSHSSIFDASAGIQLSPKFVKLVSWYDNEYGYSTRVVDLVEHVAKA
# modifications: Homotetramer, apo-enzyme preparation from yeast (NADH added in the binding assays). The isozyme is taken as TDH3 because the cited PDB 3PYM is GAPDH 3. The natural preparation may contain minor …
# B2: porcine heart L-lactate dehydrogenase (enzyme)
# chain: not shown
# notes: L-lactate dehydrogenase from porcine heart (phLDH), tetramer; also called phLDH; PhLDH
# Tests used:
# [1] = biological target: B2; test: AUC; sedimentation velocity of a mixture of phLDH and byGAPDH, each 6 μM; 50 mM Tris/HCl, pH = 7.2, 1 mM EDTA, 0.5 mM DTT; scans at 280 nm, 7 hours at 40,000 x g; fit with SEDFIT to a one-component model and compared with a Claverie simulation of 10% association; settings: both partners purified
# [2] = biological target: B1; test: cell-based or functional assay
# [3] = biological target: T1, rabbit muscle D-glyceraldehyde-3-phosphate dehydrogenase (rabbit, UniProt P46406 2-333); test: cell-based or functional assay
# T1 sequence (P46406 2-333): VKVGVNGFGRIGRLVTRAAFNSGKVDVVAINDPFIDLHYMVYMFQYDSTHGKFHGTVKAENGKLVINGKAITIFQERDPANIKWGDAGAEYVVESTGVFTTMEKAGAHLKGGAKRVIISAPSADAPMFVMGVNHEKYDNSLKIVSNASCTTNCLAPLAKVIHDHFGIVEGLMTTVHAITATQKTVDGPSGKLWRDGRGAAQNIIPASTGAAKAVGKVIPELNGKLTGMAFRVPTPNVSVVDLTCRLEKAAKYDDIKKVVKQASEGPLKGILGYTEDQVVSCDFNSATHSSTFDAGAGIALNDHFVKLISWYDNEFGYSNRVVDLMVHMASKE
# [4] = biological target: B1; test: cell-based or functional assay; remark: listed apart in the source
# [5] = biological target: T1, rabbit muscle …; test: cell-based or functional assay; remark: listed apart in the source
# [6] = biological target: the molecule itself; test: AUC; sedimentation velocity of each enzyme alone at 6 μM; scans at 280 nm, 7 hours at 40,000 x g; SEDFIT with s and Mr as free fit parameters; Mr compared with the mass calculated from the sequence
Kd [1],"ratio between measured phLDH activity and the calculated free-diffusion activity; 40 μM NADH, byGAPDH 240 to 480 μM of NADH binding sites; ratio rises from 3.5 to 6.1 fold [2]","ratio between measured phLDH activity and the calculated free-diffusion activity; byGAPDH fixed at 480 μM NADH binding sites, NADH decreased from 40 to 10 μM; ratio rises from 5.2 to 6.6 fold [2]","ratio between measured phLDH activity and the calculated free-diffusion activity; 40 μM NADH, rmGAPDH 100 to 240 μM of NADH binding sites; ratio rises from 1.3 to 2.0 fold [3]","ratio between measured phLDH activity and the calculated free-diffusion activity; rmGAPDH fixed at 200 μM NADH binding sites, NADH decreased from 40 to 10 μM; ratio rises from 1.7 to 2.28 fold [3]",apparent KM of phLDH with byGAPDH-NADH complex as substrate (630 μM pyruvate) [4],apparent KM of phLDH with rmGAPDH-NADH complex as substrate (630 μM pyruvate) [5],Binder,binding result [6]
≥ 48.6 µM,,,,,,,B1,
,6.1 fold,6.6 fold,2 fold,2.28 fold,116 µM,59.6 µM,B2,binds

# Reference: PMC7320145, “Substrate Channeling via a Transient Protein-Protein Complex: The case of D-Glyceraldehyde-3-Phosphate Dehydrogenase and L-Lactate Dehydrogenase” (Scientific Reports, 2020)
